Values quoted from earlier work, collected in article PMC4449261.

Columns and labels:
IL-4Rα1 (Homo sapiens) = IL-4Rα1 (Homo sapiens) (UniProt P24394)
IL-13Rα1 (Homo sapiens) = IL-13Rα1 (Homo sapiens) (UniProt P78552)
UniProt P78552, sequence (P78552 22-343): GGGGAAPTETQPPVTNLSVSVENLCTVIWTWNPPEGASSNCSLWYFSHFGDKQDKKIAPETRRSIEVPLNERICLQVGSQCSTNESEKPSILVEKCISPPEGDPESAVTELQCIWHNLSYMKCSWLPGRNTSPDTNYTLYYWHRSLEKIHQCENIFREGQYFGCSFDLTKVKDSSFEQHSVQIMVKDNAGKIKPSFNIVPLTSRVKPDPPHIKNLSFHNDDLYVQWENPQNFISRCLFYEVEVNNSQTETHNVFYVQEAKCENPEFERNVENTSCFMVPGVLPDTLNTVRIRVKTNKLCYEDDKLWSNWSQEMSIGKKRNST

UniProt P24394, sequence (P24394 26-232): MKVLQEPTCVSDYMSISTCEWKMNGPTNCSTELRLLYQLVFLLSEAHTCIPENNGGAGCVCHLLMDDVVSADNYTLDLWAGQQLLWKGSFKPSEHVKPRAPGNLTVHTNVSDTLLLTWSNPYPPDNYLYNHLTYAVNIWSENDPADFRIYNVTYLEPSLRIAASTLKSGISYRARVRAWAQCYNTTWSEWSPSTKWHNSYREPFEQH

Kd (IL-4Rα1 (Homo sapiens)) [nM] | Kd (IL-13Rα1 (Homo sapiens)) [nM] | Substance
0.1 |  | IL-4 (from UniProt P05112)
 | 4 | IL-13 (from UniProt P35225)
